B1: TPR t1 (parent)
chain: GACCAAUCUGCCCUCAGAGCUCGAGAACAUCUUCGGAUGCAGAGGAGGCAGGCUUCGGUGGCGCGAUAGCGCCAACGUCCUCAACCUCCAAUGCAUCCCACCACAUGAUGAUGCCUGAAGAGCCUUGGUUUUUUG

Variants of: B1
Assay: polymerase ribozyme fitness, log enrichment relative to wild type (log ratio); higher = more active; in vitro selection for triplet polymerase activity
How it was run: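 Streptavidin-bead capture of gel-excised extended constructs, followed by RT-PCR, closed a single triplicate in vitro selection round. That round began by annealing PCR-built, transcribed mutant libraries of each subunit of a heterodimeric triplet polymerase ribozyme with a biotinylated primer, the partner subunit and triplets, then incubating them frozen at −7 °C. After Illumina sequencing of inputs and outputs, genotypes needed ≥10 input reads and ≥1 read per output. Fitness is the base-2 logarithm of genotype enrichment over wild-type enrichment, using inverse-variance-weighted replicate averages.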
In the case of GACCAAUCUGCCCUCAGAGCUCGAGAACAUCUUCGGAUGCAGAGGAGACAGGCGUCGGUGGCGCGAUAGCUCCAACGUCCUCAAUCUCCAAUGCAUCCCACCACAUGAUGAUGCCUGAAGAGCCUUGGUUUUUUG, the “polymerase ribozyme fitness (log ratio)” value is reported as -4.47. In the case of GACCAAUCUGCCCUCAGAGCUCGAGAACAUCUUCGGAUGCAGAGGAGACAGGCUUCGGUGGCUCGAUAGCGCCAACGUCCUCAACCUCCAAUGCAUCCCACCACAUGAUGAUGCCUGAAGUGCCUUGGUUUUUUG, the “polymerase ribozyme fitness (log ratio)” value is reported as 0.283. With GACCAAUCUGCCCUCAGAGCUCGAGAACAUCUUCGGAUGCAGAGGAGACAGGCUUCGGUGGCGCGAUAGCGCCAACGUCCACAACCUCCAAUGCAUCUCACCACAUGAUGAUGCCUGAAGAGCCUUGGUUUUUUG the “polymerase ribozyme fitness (log ratio)” value was -2.94. With GACCAAUCUGCCCUCAGAGCUCGAGAACAUCUUCGGAUGCAGAGGAGACAGGCUUCGGUGUCGCGAUAGCGCCAACGUCCUCAACCUCCAAUGCAUCCCACCACAUGAUGAAGCCUGAAGAGCCGUCGUUUUUUG the “polymerase ribozyme fitness (log ratio)” value was -0.619. For GACCAAUCUGCCCUCAGAGCUCGAGAACAUCUUCGGAUGCAGAGGAGACAGGCUUCGGUGGCGCGAUAGCGCCAACGUCCUCAACCUCCAAUGCAUCCCACCACAUGAUGAAGCCUGAAGAGCCUUGGUUUUUUG, the “polymerase ribozyme fitness (log ratio)” value was 0.917. In the case of GACCAAUCUGCCCUCAGAGCUCGAGAACAUCUUCGGAUGCAGAGGAGACAGGCUUCGGUGGCGCGAUAGCGCCAACGUCCUCAACCUCCAAUGCAUCCCACCACAUGAUGACGCCUGAAGAGCCUUGGUUUUUUG, the “polymerase ribozyme fitness (log ratio)” value is reported as 0.294. In the case of GACCAAUCUGCCCUCAGAGCUCGAGAACAUCUUCGGAUGCAGAGGAGACAGGCUUCGGUGGCGCGAUAGCGCCAACGUCCUCAACCUCCAAUGCAUCCCACCACAUGAUGAUGCCUGAAGAGCCUUGGUAUUUUG, the “polymerase ribozyme fitness (log ratio)” value is reported as -1.78. For GACCAAUCUGCCCUCAGAGCUCGAGAACAUCUUCGGAUGCAGAGGAGACAGGCUUCGGUGGCGCGAUAGCGCCAACGUCCACAACCUCCAAUGCAUCCCACUACAUGAUGAUGCCUGAAGAGCCUUGGUUUUUUG, the “polymerase ribozyme fitness (log ratio)” value was -4.06. In the case of GACCAAUCUGCCCUCAGAGCUCGAGAACAUCUUCGGAUGCAGAGGAGACAGGCUUCGGUGGCGCGAUAGCACCAACGUCCUCAACCUCCAAUGCAUCCCACAACAUGAUGAUGCCUGAAGAGCCUUGGUUUUUUG, the “polymerase ribozyme fitness (log ratio)” value is reported as -3.85. For GACCAAUCUGCCCUCAGAGCUCGAGAACAUCUUCGGAUGCAGAGGAGACAGGCAUCGGUGGCGCGAUAGCGCCAACGUCCUCAACCUCCAAUGCAUCCCACCACAUGAUGAUGCCUGAAGAGCCUUGGUUUUUUG, the “polymerase ribozyme fitness (log ratio)” value was -0.741. With GACCAAUCUGCCCUCAGAGCUCGAGAACAUCUUCGGAUGCAGAGGAGACAGGCUUCGGUGGCGCGAUAGCGCCAACGUCCUCAACCUCCAAUGCAUCCCACCACAUGAUGAUUCCUGAAUAGCCUUGGUUUUUUG the “polymerase ribozyme fitness (log ratio)” value was -3.65. For GACCAAUCUGCCCUCAGAGCUCGAGAACAUCUUCGGAUGCAGAGGAGACAGGCUUCGGUGGCGCGAUAGCGCCAACGUCCUCAACCUCCAAUCCAUCCCACCACAUGAUGAUGACUGAAGAGCCUUGGUUUUUUG, the “polymerase ribozyme fitness (log ratio)” value was -2.27. In the case of GACCAAUCUGCCCUCAGAGCUCGAGAACAUCUUCGGAUGCAGAGGAGACAGGCUUCGGUGCCGCGUUAGCGCCAACGUCCUCAACCUCCAAUGCAUCCCACCACAUGAUGAUGCCUGAAGAGCCUUGGUUUUUUG, the “polymerase ribozyme fitness (log ratio)” value is reported as -2.1. In the case of GACCAAUCUGCCCUCAGAGCUCGAGAACAUCUUCGGAUGCAGAGGAGACAGGCUUCGGUGGCGCGAUAGCGCCAACGUCCUCAACCCCCAAUGCAUCCCAACACUUGAUGAUGCCUGAAGAGCCUUGGUUUUUUG, the “polymerase ribozyme fitness (log ratio)” value is reported as -3.9. For GACCAAUCUGCCCUCAGAGCUCGAGAACAUCUUCGGAUGCAGAGGAGACAGGCUUCGGUGGCUCGAUAGCGCCAACGUCCUCAGCCUCCAAUGCAUCCCACCACAUGAUGAUGCCUGAAGAGCCUUGUUUUUUUG, the “polymerase ribozyme fitness (log ratio)” value was -3.63. With GACCAAUCUGCCCUCAGAGCUCGAGAACAUCUUCGGAUGCAGAGGAGACAGGCCACGGUGGCGCGAUAGCGCCAACGUCCUCAACCUCCAAUGAAUCCCACCACAUGAUGAUGCCUGUAGAGCCUUGGUUUUUUG the “polymerase ribozyme fitness (log ratio)” value was -1.02. In the case of GACCAAUCUGCCCUCAGAGCUCGAGAACAUCUUCGGAUGCAGAGGAGACAGGCUUCGGUGGCGCGAUAGCGCCAACGUCCCCAACCUCCAAUGCAUCCCACAACAUGAUGAUGCCUGAAGCGCCUUGGUUUUUUG, the “polymerase ribozyme fitness (log ratio)” value is reported as -0.944. With GACCAAUCUGCCCUCAGAGCUCGAGAACAUCUUCGGAUGCAGAGGAGACAGGCUUCGGUGGCUCGAUAGCGCCAACGUCCUCAACCUCCAAUGCAUCCCACCACAUGAUGAUACCUGAAGAGCCUUGGUUUUUUG the “polymerase ribozyme fitness (log ratio)” value was -2.17. With GACCAAUCUGCCCUCAGAGCUCGAGAACAUCUUCGGAUGCAGAGGAGCCGUGCUUGGGUGGCGCGAUAGCGCCAACGUCCUCAACCUCCAAUGCAUCCCACCACAUGAUGAUGCCUAAAGAGCCUUGGUUUUUUG the “polymerase ribozyme fitness (log ratio)” value was -5.49. With GACCAAUCUGCCCUCAGAGCUCGAGAACAUCUUCGGAUGCAGAGGAGACAGGCUUCGGUGGCGCGAUAGCGCCAACGUCCUCAACCUCCAAUGCAUCCCACCACAUGAUGAUGCCUGAAGAGCCUUGGUUAUUUG the “polymerase ribozyme fitness (log ratio)” value was -0.843. In the case of GACCAAUCUGCCCUCAGAGCUCGAGAACAUCUUCGGAUGCAGAGGAGACAGGCUUCGGUGGCGCGAUAGCGCCAACGACCUCAACCUCCAAUGCAUCUCACCACAUGAUGAUGCCUGAAGAGCCUUGGUUUUUUG, the “polymerase ribozyme fitness (log ratio)” value is reported as -1.75.
